# Test results taken from publication PMC7863910, “A novel stress-inducible CmtR-ESX3-Zn^2+ regulatory pathway essential for survival of Mycobacterium bovis under oxidative stress” (The Journal of Biological Chemistry, 2020).
# T1: Zur (zinc uptake repressor), purified (UniProt P9WN85 1-130)
# T1 sequence: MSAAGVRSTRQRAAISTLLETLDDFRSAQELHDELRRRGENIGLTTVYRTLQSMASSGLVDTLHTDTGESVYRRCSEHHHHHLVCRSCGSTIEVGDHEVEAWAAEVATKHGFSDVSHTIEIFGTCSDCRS
# Target: T1, Zur (zinc uptake repressor), purified
# Test: SPR; Biacore 3000; […] (200 nM) […]; running buffer 10 mM HEPES pH 7.4, 150 mM NaCl, 50 mM EDTA, 0.005% surfactant P20
# Settings: both partners purified
binder,measurement,value
"CmtR, His-tagged, purified (natural protein, also called His-tagged CmtR) MLTCEMRESALARLGRALADPTRCRILVALLDGVCYPGQLAAHLGLTRSNVSNHLSCLRGCGLVVATYEGRQVRYALADSHLARALGELVQVVLAVDTDQPCVAERAASGEAVEMTGS",binding result,binds
